{"source": "patent US20200010836A1", "about": "“Regulation of Gene Expression by Aptamer-Mediated Accessibility of Polyadenylation Signals” (MEIRAGTX, UK II Limited, priority 2017, published 2020)", "tested_on": "luciferase expression", "assay": "Firefly luciferase assay of HEK 293 cells transfected with riboswitch constructs, treated with guanosine or guanine", "format": "cell-based", "conditions": "for induction fold of luciferase activity (presence / absence of guanine): 500 μM guanine vs NaOH solvent control; for basal level luciferase expression in the absence of guanine (comparison in words): no guanine, compared with control or parent construct; for basal luciferase expression reduced by % versus control construct pFLuc / basal level luciferase expression, % of the pFLuc control vector: absence of guanine treatment; for basal luciferase expression reduced by % versus control construct pFLuc: given as 'reduced by'; for induction fold of luciferase activity (presence / absence of guanosine): 500 μM guanosine vs DMSO solvent control; for fold induction by guanine compared with other constructs: 500 μM guanine", "procedure": "Transfection and aptamer ligand treatment: 3.5×10^4 HEK 293 cells were plated in a 96-well flat bottom plate the day before transfection. Plasmid DNA (500 ng) was added to a tube or a 96-well U-bottom plate. Separately, TransIT-293 reagent (Minis; 1.4 μl) was added to 50 μl opti-mem I media (Life Technologies), and allowed to sit for 5 minutes at room temperature (“RT”). Then, 50 μl of this diluted transfection reagent was added to the DNA, mixed, and incubated at RT for 20 min. Finally, 7 μl of this solution was added to a well of cells in a 96-well plate. Four hours after transfection, the media was aspirated, and new media was added with (i) DMSO (0.5%) or 500 μM guanosine; or (ii) NaOH (2 mM) as solvent control or 500 μM guanine. The induction fold was expressed as the quotient of luciferase activity obtained in the presence of aptamer ligand divided by the value obtained in the absence of the aptamer ligand.\nFirefly luciferase assay of cultured cells: Twenty-four hours after media change, plates were removed from the incubator, and equilibrated to RT for several minutes on a lab bench, then aspirated. Glo-lysis buffer (Promega, […]) was added, and the plates allowed to remain at RT for at least 5 minutes. Then, the well contents were mixed by 50 μL trituration, and 20 μL of each sample was mixed with 20 μL of bright-glo reagent (Promega) that had been diluted to 10% in glo-lysis buffer. 96 wells were spaced on an opaque white 384-well plate. Following a 5-min incubation at RT, luminescence was measured using Tecan machine with 500 mSec read time. The luciferase activity was expressed as mean relative light unit (RLU)±S.D.", "data": [{"molecule": "mtSPA_ATA_Gua: SEQ ID NO: 13; xpt-guanine aptamer with 9 bp stem embedding AATAAA of mtSPA, 2 GC base pairs added (nucleic acid) DNA: AAGGCCAAGAAGGGCGGAAAGATCGCCGTGTAAGGATCCAAGCTTATCGATACCGTCGACCTCGAGGGCCCAGATCTGCGGAAAAGGTATAATCGCGTGGATATGGCACGCAAGTTTCTACCGGGCACCGTAAATGTCCGACTACCTTTTATTGCGAAAGCAATAAAATATCTTTATTTTCATTACATCTGTGTGTTGGTTTTTTGTGTGTCTAGAAATAATTCTTACT", "values": [{"measurement": "induction fold of luciferase activity (presence / absence of guanine)", "result": 1.7, "unit": "fold"}, {"measurement": "basal level luciferase expression in the absence of guanine (comparison in words)", "result": "decreased"}]}, {"molecule": "DSE_Gua_1: SEQ ID NO: 5; xpt-guanine aptamer linked to 3′ end of 9 bp stem-loop embedding DSE of SV40 early polyA (nucleic acid) DNA: AAGGCCAAGAAGGGCGGAAAGATCGCCGTGTAAGCCATACCACATTTGTAGAGGTTTTACTTGCTTTAAAAAACCTCCCACACCTCCCCCTGAACCTGAAACATAAAATGAATGCAATTGTTGTTGTTAACTTGTTTATTGCAGCTTATAATGGTTACAAATAAAGCAATAGCATCACAAATTTCACAAATAAAGCATTTTTTTCACTGCATTCTAGTTGTGGTTTGTCCGAAAGGACAAACCATAATCGCGTGGATATGGCACGCAAGTTTCTACCGGGCACCGTAAATGTCCGACTGGTTTGTAAACTCATCAATGTATCTTAACGCGT", "values": [{"measurement": "basal luciferase expression reduced by % versus control construct pFLuc", "result": 35, "unit": "%"}]}, {"molecule": "SPA_DSE_Gua: SEQ ID NO: 11; xpt-guanine aptamer linked to 3′ end of stem-loop embedding DSE of synthetic polyA (nucleic acid) DNA: AAGGCCAAGAAGGGCGGAAAGATCGCCGTGTAAGGATCCAAGCTTATCGATACCGTCGACCTCGAGGGCCCAGATCTGCGGCCGCAATAAAAGATCTTTATTTTCATTAGATCTGTGTGTTGGTTTTTTGTGTGTCGAAAGACACACAATATAATCGCGTGGATATGGCACGCAAGTTTCTACCGGGCACCGTAAATGTCCGACTATTGTGTGGAAATAATTCTTACT", "values": [{"measurement": "induction fold of luciferase activity (presence / absence of guanine)", "result": 1.9, "unit": "fold"}]}, {"molecule": "SPA_ATA_Gua: SEQ ID NO: 10; xpt-guanine aptamer linked to stem-loop embedding AATAAA of synthetic polyA sequence (nucleic acid) DNA: AAGGCCAAGAAGGGCGGAAAGATCGCCGTGTAAGGATCCAAGCTTATCGATACCGTCGACCTCGAGGGCCCAGATCTGCGGCAAAAGGTATAATCGCGTGGATATGGCACGCAAGTTTCTACCGGGCACCGTAAATGTCCGACTACCTTTTATTGGAAACAATAAAAGATCTTTATTTTCATTAGATCTGTGTGTTGGTTTTTTGTGTGTCTAGAAATAATTCTTACT", "values": [{"measurement": "basal level luciferase expression in the absence of guanine (comparison in words)", "result": "did not result in reduced luciferase activity"}]}, {"molecule": "ATA_DSE_Gua: SEQ ID NO: 16; pFLuc construct containing both ATA_Gua_1 and DSE_Gua_1 switches (nucleic acid) DNA: AAGGCCAAGAAGGGCGGAAAGATCGCCGTGTAAGCCATACCACATTTGTAGAGGTTTTACTTGCTTTAAAAAACCTCCCACACCTCCCCCTGAACCTGAAACATAAAATGAATGCAATTGTTGTTGTTAACTTGTTTATTGCAGCTTATAATGGTTACAAATAAAGCAATAGCATCACAAATTTCTAAAGGTATAATCGCGTGGATATGGCACGCAAGTTTCTACCGGGCACCGTAAATGTCCGACTACCTTTATTTCGAAAGAAATAAAGCATTTTTTTCACTGCATTCTAGTTGTGGTTTGTCCGAAAGGACAAACCATAATCGCGTGGATATGGCACGCAAGTTTCTACCGGGCACCGTAAATGTCCGACTGGTTTGTAAACTCATCAATGTATCTTAACGCGT", "values": [{"measurement": "induction fold of luciferase activity (presence / absence of guanine)", "result": "approximately 2.1 fold"}, {"measurement": "basal level luciferase expression, % of the pFLuc control vector", "result": 20, "unit": "%"}, {"measurement": "basal level luciferase expression in the absence of guanine (comparison in words)", "result": "further decreases the basal level"}]}, {"molecule": "DSE_Gua_4: SEQ ID NO: 8; xpt-guanine aptamer linked to 14 bp stem-loop embedding DSE (nucleic acid) DNA: AAGGCCAAGAAGGGCGGAAAGATCGCCGTGTAAGCCATACCACATTTGTAGAGGTTTTACTTGCTTTAAAAAACCTCCCACACCTCCCCCTGAACCTGAAACATAAAATGAATGCAATTGTTGTTGTTAACTTGTTTATTGCAGCTTATAATGGTTACAAATAAAGCAATAGCATCACAAATTTCACAAATAAAGCATTTTTTTCACTGCATTCTAGTTGTGGTTTGTCCGAAAGGACAAACCACAACATAATCGCGTGGATATGGCACGCAAGTTTCTACCGGGCACCGTAAATGTCCGACTGTTGTGGAAACTCATCAATGTATCTTAACGCGT", "values": [{"measurement": "luciferase activity in the absence of aptamer ligand guanosine (comparison in words)", "setting": "DMSO treated, compared among constructs and with pFLuc-SV40", "result": "lowest"}, {"measurement": "basal level luciferase expression, % of the pFLuc control vector", "result": "~80", "unit": "%"}]}, {"molecule": "ATA_Gua_1: luciferase construct, SEQ ID NO: 1; xpt-guanine aptamer linked to 9 bp effector stem-loop (GAAA loop) embedding AATAAA of SV40 early polyA (nucleic acid) DNA: AAGGCCAAGAAGGGCGGAAAGATCGCCGTGTAAGCCATACCACATTTGTAGAGGTTTTACTTGCTTTAAAAAACCTCCCACACCTCCCCCTGAACCTGAAACATAAAATGAATGCAATTGTTGTTGTTAACTTGTTTATTGCAGCTTATAATGGTTACAAATAAAGCAATAGCATCACAAATTTCTAAAGGTATAATCGCGTGGATATGGCACGCAAGTTTCTACCGGGCACCGTAAATGTCCGACTACCTTTATTTCGAAAGAAATAAAGCATTTTTTTCACTGCATTCTAGTTGTGGTTTGTCCAAACTCATCAATGTATCTTAACGCGT", "values": [{"measurement": "induction fold of luciferase activity (presence / absence of guanosine)", "result": 6.7, "unit": "fold"}, {"measurement": "basal luciferase expression reduced by % versus control construct pFLuc", "result": 45, "unit": "%"}]}, {"molecule": "gaat_ATA_Gua_1: SEQ ID NO: 15; ATA_Gua_1 variant containing GAAT loop (nucleic acid) DNA: AAGGCCAAGAAGGGCGGAAAGATCGCCGTGTAAGCCATACCACATTTGTAGAGGTTTTACTTGCTTTAAAAAACCTCCCACACCTCCCCCTGAACCTGAAACATAAAATGAATGCAATTGTTGTTGTTAACTTGTTTATTGCAGCTTATAATGGTTACAAATAAAGCAATAGCATCACAAATTTCTAAAGGTATAATCGCGTGGATATGGCACGCAAGTTTCTACCGGGCACCGTAAATGTCCGACTACCTTTATTTCGAATGAAATAAAGCATTTTTTTCACTGCATTCTAGTTGTGGTTTGTCCAAACTCATCAATGTATCTTAACGCGT", "values": [{"measurement": "fold induction by guanine compared with other constructs", "result": "slightly lower fold induction"}, {"measurement": "basal level luciferase expression in the absence of guanine (comparison in words)", "result": "higher basal level luciferase"}]}, {"molecule": "Stbl_ATA_Gua_1: SEQ ID NO: 14; ATA_Gua_1 with GAAA loop replaced by more stable TTCG loop (nucleic acid) DNA: AAGGCCAAGAAGGGCGGAAAGATCGCCGTGTAAGCCATACCACATTTGTAGAGGTTTTACTTGCTTTAAAAAACCTCCCACACCTCCCCCTGAACCTGAAACATAAAATGAATGCAATTGTTGTTGTTAACTTGTTTATTGCAGCTTATAATGGTTACAAATAAAGCAATAGCATCACAAATTTCTAAAGGTATAATCGCGTGGATATGGCACGCAAGTTTCTACCGGGCACCGTAAATGTCCGACTACCTTTATTTCTTCGGAAATAAAGCATTTTTTTCACTGCATTCTAGTTGTGGTTTGTCCAAACTCATCAATGTATCTTAACGCGT", "values": [{"measurement": "fold induction by guanine compared with other constructs", "result": "higher induction fold"}, {"measurement": "basal level luciferase expression in the absence of guanine (comparison in words)", "result": "lower luciferase activity"}]}, {"molecule": "DSE_Gua_2: SEQ ID NO: 6; xpt-guanine aptamer linked to 10 bp stem-loop embedding DSE (nucleic acid) DNA: AAGGCCAAGAAGGGCGGAAAGATCGCCGTGTAAGCCATACCACATTTGTAGAGGTTTTACTTGCTTTAAAAAACCTCCCACACCTCCCCCTGAACCTGAAACATAAAATGAATGCAATTGTTGTTGTTAACTTGTTTATTGCAGCTTATAATGGTTACAAATAAAGCAATAGCATCACAAATTTCACAAATAAAGCATTTTTTTCACTGCATTCTAGTTGTGGTTTGTCCGAAAGGACAAACCAATAATCGCGTGGATATGGCACGCAAGTTTCTACCGGGCACCGTAAATGTCCGACTTGGTTTGAAACTCATCAATGTATCTTAACGCGT", "values": [{"measurement": "induction fold of luciferase activity (presence / absence of guanosine)", "result": 3.7, "unit": "fold"}]}]}
